Biological target: the molecule itself
Assay: cryo-EM structure

B1: protein VC1979 of Vibrio cholerae (dNTPase) (enzyme)
chain: QVSLNPEWLARNNDEHKIRRNDHRSPFQRDRARILHSAAFRRLQAKTQVHGTSLNDFHRTRLTHSLEAAQIGTGIVAQIKLKQPEFRELLPSDSLIDSLCLAHDIGHPPYGHGGEIALNYMMRDHGGFEGNAQTFRIVTSLEPYTEHHGMNLSRRTLLGLLKYPALLSATRAAIPPPAVAHQRQLKAKDWSPAKGIYDCDLASLDWVLEPLCESDRELLGQMRAEPSSPKEHRKTRFKSLDCSIMELADDIAYGVHDLEDAIVLGMVTRAQWQEAAAAQLAECGDPWFEEHIAELSEMLFSGKHYVRKDAIGGIVNALLTSISVKPVEAPFHNELLAFNAYIEPHMGNALEVLKHFVSQYVIQIPQVQRFEYKGQQLIMDLFEALSADPERLLPQATGEKWRKAQEQDEGMRVICDYIAAMTDAYAQRLHQQLFSAQSHY
stoichiometry N: 6

Source: paper PMC8009872, “Beam image-shift accelerated data acquisition for near-atomic resolution single-particle cryo-electron tomography” (Nature Communications, 2021)
